In assay [1] the target is T1, recombinant human complement component C1s (rhC1s) (human, UniProt P09871 16-688).
T1 sequence (looked up): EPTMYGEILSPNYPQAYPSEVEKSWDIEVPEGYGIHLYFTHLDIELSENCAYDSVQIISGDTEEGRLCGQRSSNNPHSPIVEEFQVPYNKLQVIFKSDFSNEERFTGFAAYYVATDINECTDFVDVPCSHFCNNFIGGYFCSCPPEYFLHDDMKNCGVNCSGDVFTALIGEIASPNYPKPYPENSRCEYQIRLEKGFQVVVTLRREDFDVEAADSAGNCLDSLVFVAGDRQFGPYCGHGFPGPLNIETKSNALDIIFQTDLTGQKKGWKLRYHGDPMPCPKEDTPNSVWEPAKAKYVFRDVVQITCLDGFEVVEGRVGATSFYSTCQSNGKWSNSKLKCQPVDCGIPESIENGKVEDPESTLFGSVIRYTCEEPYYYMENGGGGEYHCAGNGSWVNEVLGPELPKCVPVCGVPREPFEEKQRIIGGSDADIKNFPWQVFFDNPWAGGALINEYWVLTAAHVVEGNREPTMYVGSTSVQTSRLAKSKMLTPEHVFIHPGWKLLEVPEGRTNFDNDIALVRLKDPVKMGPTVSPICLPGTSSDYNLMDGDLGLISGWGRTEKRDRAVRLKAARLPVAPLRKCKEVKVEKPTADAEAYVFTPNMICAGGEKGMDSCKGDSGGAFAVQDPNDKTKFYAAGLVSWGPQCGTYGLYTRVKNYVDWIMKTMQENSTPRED
In words: cell-based or functional assay.

Assay [2] deals with T1, recombinant human complement component …. Description: cell-based or functional assay. The source holds these as a separate data set.
The target in a further assay is T2, Pro-C1s.
T2 construct: also called purified pro-C1s protein
T2 chain: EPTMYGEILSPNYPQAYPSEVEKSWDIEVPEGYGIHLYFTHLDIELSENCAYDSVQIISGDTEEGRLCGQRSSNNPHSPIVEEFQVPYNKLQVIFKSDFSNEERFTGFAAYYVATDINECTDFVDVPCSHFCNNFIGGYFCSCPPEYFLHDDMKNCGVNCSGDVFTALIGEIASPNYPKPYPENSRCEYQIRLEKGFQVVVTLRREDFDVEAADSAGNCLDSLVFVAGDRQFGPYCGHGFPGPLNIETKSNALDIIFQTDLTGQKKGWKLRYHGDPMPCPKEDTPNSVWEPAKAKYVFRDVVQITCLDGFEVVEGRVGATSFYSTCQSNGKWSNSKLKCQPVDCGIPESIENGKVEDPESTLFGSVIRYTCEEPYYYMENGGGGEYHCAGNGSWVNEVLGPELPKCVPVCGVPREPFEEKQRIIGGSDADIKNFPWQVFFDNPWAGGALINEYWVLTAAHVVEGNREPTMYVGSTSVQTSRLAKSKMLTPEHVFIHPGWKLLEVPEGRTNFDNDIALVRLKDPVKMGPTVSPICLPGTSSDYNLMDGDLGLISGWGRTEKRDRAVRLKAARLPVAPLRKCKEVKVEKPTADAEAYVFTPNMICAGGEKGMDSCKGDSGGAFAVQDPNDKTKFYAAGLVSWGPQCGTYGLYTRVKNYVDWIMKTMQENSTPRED
Description: bio-layer interferometry (BLI), kinetic analysis. (In BLI a coated tip is dipped into the sample, and binding shifts an interference pattern.)

Assay [3] addresses T3, purified human activated C1s protein, two-chain form (Homo sapiens, UniProt P09871 16-688).
T3 construct: Purified protein bought from EMD Millipore; Biotin-labeled in the clone screen; also called active C1s; native C1s protein
T3 sequence: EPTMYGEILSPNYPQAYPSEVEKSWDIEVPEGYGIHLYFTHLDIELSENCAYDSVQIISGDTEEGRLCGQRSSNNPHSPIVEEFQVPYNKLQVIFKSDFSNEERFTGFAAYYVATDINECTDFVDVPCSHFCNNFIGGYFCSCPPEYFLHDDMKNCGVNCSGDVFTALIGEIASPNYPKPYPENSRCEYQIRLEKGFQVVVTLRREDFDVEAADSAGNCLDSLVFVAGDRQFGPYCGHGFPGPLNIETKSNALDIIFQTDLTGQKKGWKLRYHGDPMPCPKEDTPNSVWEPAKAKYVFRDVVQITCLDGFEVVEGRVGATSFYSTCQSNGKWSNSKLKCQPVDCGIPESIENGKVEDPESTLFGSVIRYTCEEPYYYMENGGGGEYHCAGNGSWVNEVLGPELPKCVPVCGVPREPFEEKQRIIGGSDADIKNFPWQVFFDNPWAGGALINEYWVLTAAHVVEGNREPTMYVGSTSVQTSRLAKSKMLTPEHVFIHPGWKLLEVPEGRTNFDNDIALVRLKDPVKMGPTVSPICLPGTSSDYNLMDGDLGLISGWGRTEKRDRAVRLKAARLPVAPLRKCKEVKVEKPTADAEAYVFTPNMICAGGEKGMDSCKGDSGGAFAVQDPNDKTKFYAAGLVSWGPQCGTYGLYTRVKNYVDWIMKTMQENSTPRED
In words: bio-layer interferometry (BLI), kinetic analysis.

The results in this text go back to patent US20200079876A1 (BIOVERATIV USA, published 2020).

B1: antibody IPN-M11 (antibody, V domains shown)
VH: QVQLQQSGAELVRPGASVKLSCTASGFNIKDDYIHWVKQRPEQGLEWIGRIDPADDHTKYAPKFQDKATMTADTSSNTACLQLNSLTSEDTAVYYCAIYGSGWAWFPYWGQGTLVSVSA
VL: DIVMTQSPDYLAVSLGQRAPISCKASQSVDYDGDSYMNWYQQKPGQPPKLLIYAASNLEFGIPTRFSGSGFGTDFPLNIHPVEEEDAATYYCQQSNEDPWTFGGGPKLEIK
notes: Mouse monoclonal antibody (NZBW hybridoma)
Turning to B1, the “inhibition of C1s protease activity (relative to nafamostat)” value (shortened to “inhibition … (relative to nafamostat)”) in assay [1] is > 50%. Also, the “Inhibition of C1s Protease Activity (%), single point with clone supernatant, relative to 100 nM nafamostat” value in assay [2] was 92%. For the same molecule, in the assay with Pro-C1s, the dissociation constant Kd (in general, the constant that tells how readily two partners part at equilibrium) came to 35.2 nM; the off-rate constant (koff) (usually the rate constant with which the complex falls apart) was found to be 0.000329 s⁻¹; the on-rate (kon) (in general, the rate constant with which the complex forms) amounted to 9330 M⁻¹ s⁻¹. Besides, in assay [3], the Kd stood at 0.21 nM, the off-rate constant (koff) is 0.000182 s⁻¹ and the kon was determined as 864000 M⁻¹ s⁻¹.

B2: antibody IPN-M2 (antibody, V domains shown)
VH: EVKLQQSGAELVRPGASVKLSCTASGFNIKDDYIHWVKQRPEQGLEWIGRIDPADGHTKYAPKFQVKATITADTSSNTAYLQLSSLTSEDTAVYYCARYGYGREVFDYWGQGTTLTVSS
VL: DIVLTQSPASLAVSLGQRATISCKASQSVDYDGDSYMNWYQQKTGQPPKILIYDASNLESGIPARFSGSGSGTDFTLNIHPVEEEDAAIYYCQQSNEDPWTFGGGTKLEIK
notes: Mouse monoclonal antibody (NZBW hybridoma); Same VL and VH as IPN-M8
As for B2, the “inhibition … (relative to nafamostat)” value in assay [1] is > 50%. Also, in assay [2], the “Inhibition of C1s Protease Activity (%), single point with clone supernatant, relative to 100 nM nafamostat” value is 100%. In the assay with Pro-C1s, this molecule yielded a Kd of 42.3 nM, an off-rate (koff) of 0.000197 s⁻¹ and a kon of 4660 M⁻¹ s⁻¹. Besides, in assay [3], binding was put at a Kd of 0.291 nM, the koff was found to be 0.000279 s⁻¹ and the on-rate constant (kon) worked out at 957000 M⁻¹ s⁻¹.

B3: antibody IPN-M8 (antibody, V domains shown)
VH: EVKLQQSGAELVRPGASVKLSCTASGFNIKDDYIHWVKQRPEQGLEWIGRIDPADGHTKYAPKFQVKATITADTSSNTAYLQLSSLTSEDTAVYYCARYGYGREVFDYWGQGTTLTVSS
VL: DIVLTQSPASLAVSLGQRATISCKASQSVDYDGDSYMNWYQQKTGQPPKILIYDASNLESGIPARFSGSGSGTDFTLNIHPVEEEDAAIYYCQQSNEDPWTFGGGTKLEIK
notes: Mouse monoclonal antibody (NZBW hybridoma); Same VL and VH as IPN-M2
Consider B3, for which the “inhibition … (relative to nafamostat)” value in assay [1] is > 50%. The “Inhibition of C1s Protease Activity (%), single point with clone supernatant, relative to 100 nM nafamostat” value in assay [2] was 100%. Moreover, in the assay with Pro-C1s, the Kd came to 19.7 nM, the off-rate (koff) came to 0.000178 s⁻¹ and the kon came out at 9080 M⁻¹ s⁻¹. Besides, in assay [3], the affinity, expressed as Kd, was 0.213 nM; the koff came out at 0.000234 s⁻¹; the on-rate constant (kon) turned out to be 1.12e+06 M⁻¹ s⁻¹.

B4: antibody IPN-M3 (antibody, V domains shown)
VH: EVQLQQSGAELVRPGASVKLSCTASGFNIKDDYIHWVKQRPEQGLEWIGRIDPADDHTKYAPKFQDKATMTADTSSNTACLQLNSLTSEDTAVYYCAIYGSGWAWFPYWGQGTLVSVSA
VL: DIVLTQSTDYLAVSLGQRATISCKASQSVDYDGDSYMNWYQQKPGQPPKLLIYAASNLESGIPARFSGSGSGTDFTLNIHPVEEEDAATYYCQQSNEDPWTFGGGTKLEIK
notes: Mouse monoclonal antibody (NZBW hybridoma); Same VL and VH as IPN-M1 and IPN-M13
For the molecule B4, the “inhibition … (relative to nafamostat)” value in assay [1] is > 50%. Also, the “Inhibition of C1s Protease Activity (%), single point with clone supernatant, relative to 100 nM nafamostat” value in assay [2] came out at 89%. Further, in the assay with Pro-C1s, the Kd turned out to be 102 nM, the off-rate (koff) was found to be 0.00041 s⁻¹ and the kon is 4040 M⁻¹ s⁻¹. In assay [3], the equilibrium dissociation constant (Kd) was 0.187 nM, the koff was 0.000158 s⁻¹ and the kon turned out to be 845000 M⁻¹ s⁻¹.

B5: antibody IPN-M14 (antibody, V domains shown)
VH: EVKLQQSGAELVRPGASVKLSCTASGFNIKDDYIHWVKQRPEQGLEWIGRIDPADGHTKYAPKFQVKATITADTSSNTAYLQLSSLTSEDTAVYYCARYGYGREVFDYWGQGTTLTVSS
VL: DIVLTQFPTFLAVFLGQRAPISCKASQSVDYDGDSYMNWFQQKTGQPPKILIYDASNLEFGIPTRFSGSGFGTDFPLNIHPVEEEDAAIYFCQQSNEDPWTFGGGPKLEIK
notes: as for B1
Regarding B5, in assay [1], the “inhibition … (relative to nafamostat)” value is > 50%. Further, the “Inhibition of C1s Protease Activity (%), single point with clone supernatant, relative to 100 nM nafamostat” value in assay [2] came to 100%. In the assay with Pro-C1s, this molecule displayed a dissociation constant (Kd) of 13.5 nM, a koff of 0.000223 s⁻¹ and a kon of 16500 M⁻¹ s⁻¹. In assay [3], this molecule displayed a Kd of 0.207 nM, a koff of 0.000231 s⁻¹ and a kon of 1.12e+06 M⁻¹ s⁻¹.
